The values that follow come from US20180355059A1 (PHARMAEXPLORER, published 2018).

The target in assay [1] is T1, recombinant cyno monkey PCSK9 protein (cyno monkey, UniProt A8T666 31-692 (rhesus entry), limits assumed, biotin-labelled in the ELISA (Biotin labeling kit)).
T1 construct: also called cyno PCSK9; Cyno Monkey PCSK9-His
Put plainly: ELISA, biotin-cyno PCSK9 on streptavidin plate; antibody 0.0067 nM.
Protocol: (§1) The next day, the plates were washed twice with wash buffer [0.01% (v/v) Tween 20], then blocked with blocking buffer [0.01% (v/v) 0.1% BSA (w/w) Tween 20] at room temperature for 2 hours. […] Unbound PCSK9 proteins were removed by washing the plate three times with wash buffer [0.01% (v/v) Tween 20]. […] The plates were washed twice with wash buffer [0.01% (v/v) Tween 20], and 200 uL HRP-conjugated secondary antibody (Sigma) was added to each well and incubated for 2 hours at 37° C. After the plates were washed three times with wash buffer, 100 ul TMB substrate were added to each well and incubated for 30 minutes at room temperature. 100 ul stop solution (0.1N HCl) were added to each well to stop the reaction.

Assay [2] addresses T1, recombinant cyno monkey PCSK9 protein. Put plainly: ELISA, biotin-cyno PCSK9 on streptavidin plate; antibody 0.000067 nM.
Protocol: as §1
Assay [3] concerns the target T2, recombinant human PCSK9 protein, His-tagged (Immunogen A, hPCSK9-His) (human, UniProt Q8NBP7 31-692, limits assumed, biotin-labelled in the ELISA and blocking assays (Biotin labeling kit)).
T2 construct: also called human PCSK9-His; recombinant hPCSK9-His; not shown: His tag
Put plainly: ELISA, biotin-hPCSK9-His on streptavidin plate; antibody 66.67 nM.

Assay [4] has as its target T2, recombinant human PCSK9 protein, …. Put plainly: ELISA, biotin-hPCSK9-His on streptavidin plate; antibody 0 nM (blank).
Protocol: as §1
For assay [5] the target is unchanged. Put plainly: blocking ELISA, biotin-hPCSK9-His on coated LDLR ECD-His; antibody 1.6 nM.
Protocol: (§2) Purified LDLR^ECD-His was diluted with PBS to a final concentration of 1.0 ug/ml, and 100 uL of diluted LDLR^ECD-His were added to each well of 96-well plate that was then sealed with plastic film and incubated at 4° C. overnight. The plate was washed twice with wash buffer [PBS+0.01% (v/v) Tween 20] and incubated with blocking buffer [PBS+0.01% (v/v) BSA+1% Tween20 (w/w)] at room temperature for 2 hours. […] The plate was washed three times with wash buffer [0.01% (v/v) Tween 20]. 100 uL HRP-conjugated streptavidin (Sigma) were then added to each well and incubated at 37° C. for 1 hour. The plate was then washed three times with wash buffer, and 100 uL TMB substrate were added to each well. After 15 minutes of incubation at room temperature, the reaction was stopped by adding 50 uL stop solution (0.1N HCl).
Assay [6] shares this target. Put plainly: ELISA, biotin-hPCSK9-His on streptavidin plate; antibody 6.67 nM.
Protocol: as §1
For assay [7], the target named is T1, recombinant cyno monkey PCSK9 protein. Put plainly: ELISA, biotin-cyno PCSK9 on streptavidin plate; antibody 66.67 nM.
Protocol: as §1
The target of assay [8] is T2, recombinant human PCSK9 protein, …. Put plainly: ELISA, biotin-hPCSK9-His on streptavidin plate; antibody 0.00067 nM.
Protocol: as §1
The target is the same in assay [9]. Put plainly: ELISA, biotin-hPCSK9-His on streptavidin plate; antibody 0.067 nM.
Protocol: as §1
Assay [10] shares this target. Put plainly: ELISA, biotin-hPCSK9-His on streptavidin plate; antibody 0.000067 nM.
Protocol: as §1
Assay [11] has the same target. Put plainly: blocking ELISA, biotin-hPCSK9-His on coated LDLR ECD-His; antibody 200 nM.
Protocol: as §2
For assay [12] the target is unchanged. Put plainly: ELISA, biotin-hPCSK9-His on streptavidin plate; antibody 0.67 nM.
Protocol: as §1
Assay [13] addresses T1, recombinant cyno monkey PCSK9 protein. Put plainly: ELISA, biotin-cyno PCSK9 on streptavidin plate; antibody 0.067 nM.
Protocol: as §1
In assay [14] the target is T2, recombinant human PCSK9 protein, …. Put plainly: ELISA, biotin-hPCSK9-His on streptavidin plate; antibody 0.0067 nM.
Protocol: as §1
The target of assay [15] is T1, recombinant cyno monkey PCSK9 protein. Put plainly: ELISA, biotin-cyno PCSK9 on streptavidin plate; antibody 0 nM (blank).
Protocol: as §1
Assay [16] addresses T2, recombinant human PCSK9 protein, …. Put plainly: blocking ELISA, biotin-hPCSK9-His on coated LDLR ECD-His; antibody 0.06 nM.
Protocol: as §2
Assay [17] deals with T1, recombinant cyno monkey PCSK9 protein. Put plainly: ELISA, biotin-cyno PCSK9 on streptavidin plate; antibody 0.00067 nM.
Protocol: as §1
Assay [18] has the same target. Put plainly: ELISA, biotin-cyno PCSK9 on streptavidin plate; antibody 6.67 nM.
Protocol: as §1
Assay [19] has as its target T2, recombinant human PCSK9 protein, …. Put plainly: blocking ELISA, biotin-hPCSK9-His on coated LDLR ECD-His; antibody 0.01 nM.
Protocol: as §2
Assay [20] shares this target. Put plainly: blocking ELISA, biotin-hPCSK9-His on coated LDLR ECD-His; antibody 40 nM.
Protocol: as §2
For assay [21] the target is unchanged. Put plainly: blocking ELISA, biotin-hPCSK9-His on coated LDLR ECD-His; antibody 0.32 nM.
Protocol: as §2
The target in assay [22] is T1, recombinant cyno monkey PCSK9 protein. Put plainly: ELISA, biotin-cyno PCSK9 on streptavidin plate; antibody 0.67 nM.
Protocol: as §1
For assay [23], the target named is T2, recombinant human PCSK9 protein, …. Put plainly: blocking ELISA, biotin-hPCSK9-His on coated LDLR ECD-His; antibody 8 nM.
Protocol: as §2

T1 sequence (A8T666 31-692 limits assumed): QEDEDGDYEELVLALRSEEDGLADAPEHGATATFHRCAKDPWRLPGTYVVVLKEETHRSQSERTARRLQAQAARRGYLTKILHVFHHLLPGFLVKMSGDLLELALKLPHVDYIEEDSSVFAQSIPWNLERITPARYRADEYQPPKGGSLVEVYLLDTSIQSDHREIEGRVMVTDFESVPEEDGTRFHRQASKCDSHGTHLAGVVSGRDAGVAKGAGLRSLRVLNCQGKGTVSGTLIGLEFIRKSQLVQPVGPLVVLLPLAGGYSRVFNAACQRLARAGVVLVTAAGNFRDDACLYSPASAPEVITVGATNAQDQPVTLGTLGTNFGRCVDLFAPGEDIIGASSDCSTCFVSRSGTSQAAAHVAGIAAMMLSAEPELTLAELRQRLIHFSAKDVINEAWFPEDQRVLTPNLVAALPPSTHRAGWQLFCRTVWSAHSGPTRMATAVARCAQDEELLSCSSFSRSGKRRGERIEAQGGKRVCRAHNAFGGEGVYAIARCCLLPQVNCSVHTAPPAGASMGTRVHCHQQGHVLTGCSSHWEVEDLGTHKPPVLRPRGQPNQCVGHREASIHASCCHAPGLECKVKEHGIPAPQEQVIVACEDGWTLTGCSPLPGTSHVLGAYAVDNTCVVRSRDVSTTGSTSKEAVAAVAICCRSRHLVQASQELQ

B1: 76A1B11, chimeric anti-PCSK9 mAb purified from hybridoma (antibody, V domains shown)
VH: QVQLVESGGGVVQPGRSLRLSCAATGFTFSIYGMHWVRQAPGKGLEWVAVIWYDGSNKYYADSVKGRFIISRDNSKNTLYLQMNSLRVEDTAVYYCVSDYFGSGNSYYYYGMDVWGQGTTVTVSS
VL: DIQMTQSPSSLSASVGDRVTITCRASQVISNYLAWYQQKPGKVPKLLIYTASTLQSGVPSRFSGSGSGADFTLTISSLQPEDVATYYCQKYNSAPYTFGQGTKLEIK
notes: From Harbour H2L2 mice: human variable regions, rat constant regions
With B1, the OD450 nm in assay [1] stood at 0.26 OD450 nm; in assay [2] it was 0.21 OD450 nm; in [3] it was 2.85 OD450 nm; in [4] it was 0.18 OD450 nm; in [6], 2.85 OD450 nm; in assay [7], 2.88 OD450 nm. Also, the OD450 nm was determined as 0.21 OD450 nm in [8]; 0.86 OD450 nm in assay [9]; 0.2 OD450 nm in assay [10]; 2.66 OD450 nm in [12]; 0.81 OD450 nm in [13]; 0.27 OD450 nm in assay [14]. For the same molecule, the OD450 nm turned out to be 0.19 OD450 nm in assay [15], 0.23 OD450 nm in assay [17], 2.82 OD450 nm in [18] and 2.5 OD450 nm in assay [22]. Moreover, the “OD450 nm (PCSK9 bound to LDLR)” value in assay [5] came to 0.96 OD450 nm; in [11], 0.55 OD450 nm; in [16], 1.18 OD450 nm; in assay [19], 1.29 OD450 nm; in assay [20], 0.59 OD450 nm; in [21], 1.19 OD450 nm. Moreover, the “OD450 nm (PCSK9 bound to LDLR)” value in assay [23] was found to be 0.7 OD450 nm.

B2: 139G1C5, chimeric anti-PCSK9 mAb purified from hybridoma (antibody, V domains shown)
VH: QVQLQESGPGLVKPSGTLSLTCAVSGGSISRNNWWSWVRQPPGKGLEWIGEIYHSGSTNYNPSLKSRVTISVDKSKNQFSLKLSSVTAADTAVYYCARDLLGIGLDYWGQGTLVTVSS
VL: EFVLTQSPATLSLSPGERAILSCRASQSFSSYIAWYQQKPGQAPRLLIYDASNRATGIPARFSGSGSGTDFTLTISSLEPEDFAVYYCQQHSNWMYTFGQGTKLEIK
notes: as for B1
In the case of B2, the OD450 nm in assay [1] came to 0.27 OD450 nm; in assay [2], 0.23 OD450 nm; in assay [3], 2.93 OD450 nm; in assay [4], 0.22 OD450 nm; in [6], 2.94 OD450 nm; in assay [7] it was 2.9 OD450 nm. The OD450 nm was determined as 0.21 OD450 nm in assay [8]; 1.55 OD450 nm in assay [9]; 0.19 OD450 nm in [10]; 2.87 OD450 nm in assay [12]; 1 OD450 nm in [13]; 0.36 OD450 nm in assay [14]. For the same molecule, the OD450 nm in assay [15] came to 0.2 OD450 nm; in [17] it was 0.26 OD450 nm; in assay [18], 2.88 OD450 nm; in assay [22] it was 2.67 OD450 nm. Further, the “OD450 nm (PCSK9 bound to LDLR)” value in assay [5] was found to be 0.89 OD450 nm; in [11] it was 0.63 OD450 nm; in [16], 1.13 OD450 nm; in assay [19] it was 1.06 OD450 nm; in [20], 0.67 OD450 nm; in assay [21] it was 1.11 OD450 nm. Further, in assay [23], the “OD450 nm (PCSK9 bound to LDLR)” value was determined as 0.61 OD450 nm.

B3: 74C10A8, chimeric anti-PCSK9 mAb purified from hybridoma (antibody, V domains shown)
VH: QVQLQESGPGLVKPSETLSLTCSVSGGSINTYYWSWIRQPPGKGLEWIGYIYYSGSTNYNPSLKSRVTISVDTSKNQFSLKLTSVTAADTAVYYCARERFTMVRGVMMDYYYYGMDVWGQGTTVTVSS
VL: DIQLTQSPSFLSASVGDRVTITCRASQGISSYLAWYQQKPGKAPKLLIYAASTLQSGVPSRFSGSGSGTEFTLTISSLQPEDFATYYCQQLNSYPRTFGQGTKVEIK
notes: as for B1
With B3, the OD450 nm in assay [1] came to 0.27 OD450 nm; in assay [2] it was 0.18 OD450 nm; in [3] it was 2.98 OD450 nm; in assay [4] it was 0.22 OD450 nm; in assay [6], 2.99 OD450 nm; in [7], 2.89 OD450 nm. The OD450 nm came out at 0.17 OD450 nm in assay [8]; 0.19 OD450 nm in [10]; 2.89 OD450 nm in assay [12]; 0.76 OD450 nm in [13]; 0.3 OD450 nm in assay [14]; 0.21 OD450 nm in assay [15]. The OD450 nm in assay [17] was found to be 0.34 OD450 nm; in [18] it was 2.86 OD450 nm; in [22], 2.53 OD450 nm. The “OD450 nm (PCSK9 bound to LDLR)” value in assay [5] worked out at 0.97 OD450 nm; in assay [11], 0.55 OD450 nm; in assay [16] it was 1.3 OD450 nm; in [19], 1.34 OD450 nm; in [20], 0.68 OD450 nm; in [21], 1.2 OD450 nm. In addition, the “OD450 nm (PCSK9 bound to LDLR)” value in assay [23] turned out to be 0.78 OD450 nm.
